In PMC8339350:
“And” between values parts separate entries of the source, which are not always exact repeats. Equal values may be shown once. One block for each substance: values may come before it.

How the values were obtained:
[1] = target: AKAP18 (Homo sapiens) (UniProt Q9P0M2); conditions: cited from earlier work
[2] = target: full-length SPA17 (sperm autoantigenic protein 17), human (human) (UniProt Q15506); assay: SEC-MALS; Wyatt system on Superdex 200 Increase 10/300; 20 mM Tris, pH 8, 200 mM NaCl, 5 mM DTT; 0.5 ml/min
[3] = target: GST-AKAP18α (human); assay: BLI; Octet RED96; anti-GST probes loaded with GST protein at 200 nM; room temperature; 50 mM Tris HCl, 200 mM NaCl, 5 mM DTT, 0.1% BSA, pH 8.0; steady-state analysis for KD

Chain of RIIα (P13861 2-404): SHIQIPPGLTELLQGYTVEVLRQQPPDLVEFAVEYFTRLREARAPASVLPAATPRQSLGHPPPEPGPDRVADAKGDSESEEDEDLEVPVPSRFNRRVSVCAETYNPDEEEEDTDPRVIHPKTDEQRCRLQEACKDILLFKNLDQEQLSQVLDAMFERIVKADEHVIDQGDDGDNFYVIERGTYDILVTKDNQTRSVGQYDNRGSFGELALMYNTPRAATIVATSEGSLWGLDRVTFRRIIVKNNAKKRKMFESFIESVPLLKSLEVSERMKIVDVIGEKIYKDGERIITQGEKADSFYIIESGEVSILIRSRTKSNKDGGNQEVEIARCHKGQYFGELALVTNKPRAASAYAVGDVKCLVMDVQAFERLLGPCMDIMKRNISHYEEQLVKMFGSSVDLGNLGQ

Substance: RIIα (from UniProt P13861)
Kd [1]: 31 nM

stoichiometry N [2]: 4 and 2
Substance: full-length SPA17 (sperm autoantigenic protein 17), human (from UniProt Q15506 1-151) (natural protein)

Kd [3]: 82 nM
Substance: SPA17 1 to 75-ROPN1L 1 to 75 heterodimer (from UniProt Q15506 1-75; Q96C74 1-75) (complex)
